The target of this data set is RBP4 (retinol binding protein 4) (Homo sapiens, UniProt P02753 19-201). The experiment in a line: aptamer-antibody sandwich chemiluminescence on streptavidin wells; 2 mM Mg2+, 1 mM Ca2+; linear range 0.001-2 ng/mL, LOD 951 fg/mL; Binding buffer 20 mM Tris-HCl pH 7.6, 100 mM NaCl, 2 mM MgCl2, 5 mM KCl, 1 mM CaCl2, 0.02% Tween-20; RBP4 1 h (temperature not stated), reporter antibody step 1.

B1: RBA (RBP4 aptamer), biotin-T10 (ssDNA)
DNA: TTTTTTTTTTATACCAGCTTATTCAATTACAGTAGTGAGGGGTCCGTCGTGGGGTAGTTGGGTCGTGGAGATAGTAAGTGCAATCT
Turning to B1, the binding result is given as “binds”.

Values taken from paper PMC6969062, “Ultrasensitive nano-aptasensor for monitoring retinol binding protein 4 as a biomarker for diabetes prognosis at early stages”.
